These results are taken from paper PMC4174979.

For this test, the target named is WRN_(235–526) (human). The test is described as follows: SEC.

Sequence of WRN_(235–526) (domain or fragment) (Q14191 2-1432): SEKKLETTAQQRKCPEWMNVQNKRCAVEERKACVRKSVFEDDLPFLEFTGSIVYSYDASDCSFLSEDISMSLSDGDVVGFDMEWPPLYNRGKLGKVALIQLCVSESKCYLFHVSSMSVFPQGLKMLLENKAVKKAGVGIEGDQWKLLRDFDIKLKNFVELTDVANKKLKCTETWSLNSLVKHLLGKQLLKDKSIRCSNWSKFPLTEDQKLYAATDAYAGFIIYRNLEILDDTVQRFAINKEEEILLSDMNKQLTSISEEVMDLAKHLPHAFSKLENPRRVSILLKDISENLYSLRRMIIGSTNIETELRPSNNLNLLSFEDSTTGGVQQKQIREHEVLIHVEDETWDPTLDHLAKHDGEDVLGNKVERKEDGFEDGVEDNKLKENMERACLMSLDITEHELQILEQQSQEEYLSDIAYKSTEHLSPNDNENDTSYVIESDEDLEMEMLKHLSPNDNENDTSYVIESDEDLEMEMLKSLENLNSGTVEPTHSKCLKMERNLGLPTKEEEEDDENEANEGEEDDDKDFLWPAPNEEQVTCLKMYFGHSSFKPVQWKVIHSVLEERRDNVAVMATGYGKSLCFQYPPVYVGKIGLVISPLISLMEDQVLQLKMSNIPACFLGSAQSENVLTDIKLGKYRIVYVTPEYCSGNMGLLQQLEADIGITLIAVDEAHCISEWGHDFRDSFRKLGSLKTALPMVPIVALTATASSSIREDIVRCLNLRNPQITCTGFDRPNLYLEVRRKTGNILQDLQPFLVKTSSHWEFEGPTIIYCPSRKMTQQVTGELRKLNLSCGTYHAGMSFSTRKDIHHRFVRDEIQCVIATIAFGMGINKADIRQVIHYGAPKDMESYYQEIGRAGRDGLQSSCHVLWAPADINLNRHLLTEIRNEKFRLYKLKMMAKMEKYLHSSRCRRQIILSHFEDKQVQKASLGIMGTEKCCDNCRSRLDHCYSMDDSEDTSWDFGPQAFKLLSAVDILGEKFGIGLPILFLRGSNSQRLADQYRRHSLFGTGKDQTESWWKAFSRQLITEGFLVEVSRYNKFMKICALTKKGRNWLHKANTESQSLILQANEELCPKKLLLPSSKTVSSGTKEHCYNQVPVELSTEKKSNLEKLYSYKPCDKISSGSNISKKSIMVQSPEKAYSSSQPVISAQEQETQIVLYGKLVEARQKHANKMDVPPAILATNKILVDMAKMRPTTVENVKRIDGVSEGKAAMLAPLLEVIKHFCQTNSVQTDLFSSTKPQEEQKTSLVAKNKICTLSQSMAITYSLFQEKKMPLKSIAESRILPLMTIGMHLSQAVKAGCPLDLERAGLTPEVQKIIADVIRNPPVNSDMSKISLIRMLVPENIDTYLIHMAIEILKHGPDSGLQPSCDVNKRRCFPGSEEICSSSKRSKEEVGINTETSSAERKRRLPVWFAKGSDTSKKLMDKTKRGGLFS

As usually defined, the stoichiometry N is the number of molecules, sites or subunits per partner or assembly. WRN_(235–526) (domain or fragment) came in with a stoichiometry N of 6.
